Test results reported in patent publication US10398755.

Target: T1, mouse CLU with C-terminal (His)6 (CLU-His), recombinant secreted clusterin, Q06890
T1 chain: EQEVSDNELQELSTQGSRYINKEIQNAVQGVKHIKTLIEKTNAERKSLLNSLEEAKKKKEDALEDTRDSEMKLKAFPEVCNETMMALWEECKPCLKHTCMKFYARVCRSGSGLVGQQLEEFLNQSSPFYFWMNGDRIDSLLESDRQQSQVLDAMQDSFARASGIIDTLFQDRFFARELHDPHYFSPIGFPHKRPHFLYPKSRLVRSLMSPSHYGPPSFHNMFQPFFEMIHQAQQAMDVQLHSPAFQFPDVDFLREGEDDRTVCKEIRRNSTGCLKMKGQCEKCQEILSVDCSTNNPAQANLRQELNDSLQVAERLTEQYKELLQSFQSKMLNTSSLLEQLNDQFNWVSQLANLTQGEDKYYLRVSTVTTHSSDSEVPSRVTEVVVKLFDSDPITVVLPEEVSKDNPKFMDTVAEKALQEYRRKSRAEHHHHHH

B1: MMP-9, propeptide-cleaved (APMA-processed active MMP-9) (protein)
chain: FQTFKGLKWDHHNITYWIQNYSEDLPRDMIDDAFARAFAVWGEVAPLTFTRVYGPEADIVIQFGVAEHGDGYPFDGKDGLLAHAFPPGAGVQGDAHFDDDELWSLGKGVVIPTYYGNSNGAPCHFPFTFEGRSYSACTTDGRNDGTPWCSTTADYDKDGKFGFCPSERLYTEHGNGEGKPCVFPFIFEGRSYSACTTKGRSDGYRWCATTANYDQDKLYGFCPTRVDATVVGGNSAGELCVFPFVFLGKQYSSCTSDGRRDGRLWCATTSNFDTDKKWGFCPDQGYSLFLVAAHEFGHALGLDHSSVPEALMYPLYSYLEGFPLNKDDIDGIQYLYGRGSKPDPRPPATTTTEPQPTAPPTMCPTIPPTAYPTVGPTVGPTGAPSPGPTSSPSPGPTGAPSPGPTAPPTAGSSEASTESLSPADNPCNVDVFDAIAEIQGALHFFKDGWYWKFLNHRGSPLQGPFLTARTWPALPATLDSAFEDPQTKRVFFFSGRQMWVYTGKTVLGPRSLDKLGLGPEVTHVSGLLPRRLGKALLFSKGRVWRFDLKSQKVDPQSVIRVDKEFSGVPWNSHDIFQYQDKAYFCHGKFFWRVSFQNEVNKVDHEVNQVDDVGYVTYDLLQCP
digestion of CLU by active MMP-9 (SDS/PAGE, Coomasie staining; gelatin as known substrate): the density of CLU protein, separated as a and 6 subunits, changed little, whereas most high molecular weight gelatin disappeared upon incubation with MMP-9, indicating that CLU is not a substrate for MMP-9 in vitro
